Experimental data: patent US20070015232A1, “Mitotic index assay” (DiscoveRx, Inc., priority 2005, published 2007)

Tests used:
[1] = target: cyto-EA (β-galactosidase enzyme acceptor fragment localized in the cytoplasm) (E. coli) [β-galactosidase: P00722]; test: cell-based or functional assay
[2] = target: EA-NLS/NRS (β-galactosidase enzyme acceptor fragment fused to a nuclear localization signal / nuclear retention signal) (E. coli) [β-galactosidase: P00722]; test: cell-based or functional assay

EFC activity, CHO-K1 cyto-EA cells transiently transfected with cJUN-PL, nocodazole and colchicine [1]	EFC (β-galactosidase chemiluminescence after lysis), CHO-K1 pool, Taxol, nocodazole and colchicine overnight [2]	EFC activity (β-galactosidase chemiluminescence after lysis), C2C12 cells, nocodazole 1-10 µg/mL [2]	EFC activity, CHO-K1 clone #69, nocodazole and colchicine [2]	Substance
2.1 fold				cJUN-PL (c-Jun fused to the PL β-galactosidase enzyme donor fragment)
	< 4 fold	2 fold	3 to 4 fold	GR-PL (human glucocorticoid receptor fused to PL, a 55 mer α-fragment of β-galactosidase) (from UniProt P04150 1-777)
